Reference: patent US20150299313A1 (Chugai, published 2015)

How the values were obtained:
[1] = biological target: T1, soluble human IL-6 receptor (human, UniProt P08887 20-357); assay: SPR (Biacore T100), pH 7.4, 37 C
T1 construct: also called hsIL-6R; hIL6R
T1 sequence: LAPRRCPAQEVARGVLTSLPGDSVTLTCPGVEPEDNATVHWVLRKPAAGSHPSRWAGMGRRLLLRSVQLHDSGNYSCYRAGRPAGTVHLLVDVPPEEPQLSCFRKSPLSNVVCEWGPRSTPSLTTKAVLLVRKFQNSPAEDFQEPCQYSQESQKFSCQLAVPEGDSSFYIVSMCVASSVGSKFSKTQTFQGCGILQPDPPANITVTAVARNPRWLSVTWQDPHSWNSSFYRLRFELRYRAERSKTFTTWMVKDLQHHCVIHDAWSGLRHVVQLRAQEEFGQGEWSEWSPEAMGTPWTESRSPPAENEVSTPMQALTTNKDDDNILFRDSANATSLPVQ
Experimental: (§1) All samples were measured at 37° C.
(§2) Individual parameters were calculated by use of Biacore T100 Evaluation Software (GE Healthcare).

[2] = biological target: T1, soluble human IL-6 receptor; assay: SPR (Biacore T100), 3 uM CaCl2, pH 7.4, 37 C (summary table)
Experimental: as §1
From the sensorgram obtained by measurement, an association constant, ka (1/Ms) and a dissociation constant kd (1/s) as kinetics parameters were computationally obtained. From the values, KD (M) of each antibody to a human IL-6 receptor was calculated. Individual parameters were calculated by use of Biacore T100 Evaluation Software (GE Healthcare).
as §2

[3] = biological target: T1, soluble human IL-6 receptor; assay: SPR (Biacore T100), 3 uM CaCl2, pH 7.4, 37 C; roughly calculated by Req=C*Rmax/(KD+C)+RI; 3 µM CaCl2; KD estimated by Expression 1

B1: FH4-IgG1 (antibody, V domains shown)
VH: QVQLVQSGAEVKKPGSSVKVSCKASGGTFSSYAISWVRQAPGQGLEWMGGIIPIFGTANYAQKFQGRVTITADESTSTAYMELSSLRSEDTAVYYCARERDYYDSSGYYDAFDIWGQGTMVTVSS
VL: ETTVTQSPSFLSASVGDRVTITCITTTDIDDDMNWFQQEPGKAPKLLISEGNILRPGVPSRFSSSGYGTDFTLTISKLQPEDFATYYCLQSDNLPFTFGQGTKLEIKR
notes: Ca-dependent anti-IL-6R antibody from a human phage library
[1]
  Ca dependency (KD at 3 uM CaCl2 against KD at 2 mM CaCl2): ≥ 60 fold
[2]
  Kd: ≥ 34 µM
[3]
  Kd: ~34 µM

B2: 6RL#9-IgG1 (antibody, V domains shown)
VH: QVQLVQSGAEVKKPGASVKVSCKASGYTFTSYYMHWVRQAPGQGLEWMGIINPSGGSTSYAQKFQGRVTMTRDTSTSTVYMELSSLRSEDTAVYYCARDDPGGGEYYFDYWGQGTLVTVSS
VL: QSVLTQPPSVSGAPGQRVTISCTGSRSNMGAGYDVHWYQLLPGAAPKLLISHNTHRPSGVPDRFSGSKSGASASLAITGLQAEDEADYYCQSHDSSLSAVVFGGGTKLTVLS
notes: as for B1
[1]
  Ca dependency (KD at 3 uM CaCl2 against KD at 2 mM CaCl2): ≥ 120 fold
[2]
  Kd: ≥ 31 µM
[3]
  Kd: ~31 µM
